{"source": "the DeepSol protein solubility set"}
{"assay": "soluble on expression in E. coli; label from the status in PepcDB or PDB records"}
{"sequence": "MGSDKIHHHHHHMKLNHRQLEAFRAMIETGSVTEASKRIGVTQPAASRLISDLEYAIGYALFLREKKRLTPTPEAMALFEEVDRSYIGLGLIGDAARDIGANRRGALRIASLPAMALSFLPKVISKFCEDKPDISVDMQIHSSQRVIQCVASQQFDLGFAEIDSLHPAVKSQAFFESPMVAILPKHHPLCRKATLTPQDFSNENFIALGSNYTMRKRIDALFLANNITRKIQIETQLSMAVANLVASGAGVSIIEALTASSFRGLNLVEARPFLPEITYTYRVLSPAHRPISLLTASFINATRDALMKFDVSGHAL", "soluble on expression in E. coli": "not soluble"}
{"sequence": "MGSDKIHHHHHHMIKNFVLDTNVLLYDPQAIFKFEENNIIIPITVIEEIDRFKKDMNETGRNARQLSRYLDEMRATGSLANGIALETGGTLRVEMYEEKFMKVLPPELREERGDNRILAVALRVKEQDEATPVIFVTKDTNLRIKSDALGLKAEDYESDKVDIEELYPGFTELEVSAEMVDRFHGQGWVDLTGYDLHPNQFVTLRDAANPSHTALGKYRADQKRITPIAKNGKDGVWSIHPRNREQAFAFDALLDDSIKLVTLVGKAGTGKTLLAIAAGLHKTAEENVYNRLLVSRPVFPMGRDLGFLPGDIEEKLTPWMQPIFDNVELLLSGHEAEKRHSKGYKELMAMGIMDIEPLTYIRGRSIPLQFMIVDEAQNLTPHEIKTIITRAGEGTKIVLTGDPYQIDNPYVDASSNGLTYVVERFKGVPIAGHVTMTKGERSELAELAANLL", "soluble on expression in E. coli": "not soluble"}
{"sequence": "MWGRYEKLRIFYDPTRAIYDSGADYLTREKHRLVVIANSAWGLLLNLSCYYDEVLEKRKIPFGKQEIDDDMDKVSALKRKFKDISEIKVGDGWEYPFNYEQGMKELDEVLLKYIPFFEEER", "soluble on expression in E. coli": "not soluble"}
{"sequence": "MGSDKIHHHHHHMNRTMSSINVLSLPVFNRDASGYDALRRGLIPCFDAFYGTALDLIDDWRDAEKLRVLDLGAGTGLFTAMLLTRHPDAQIHLIDASEKMLEQARKRFDGNPAITYAVADMANTELGGPWDLIISALAIHHLEDIGKKHLFGEIRGALSEGGLFVNVEQVLGHDPEVEARYARTWLQQVRRLGVAEVEIAKAHERMSHDRCSPLENQLQWMRDTGFCEIDCSFKAWRFAVLSGRR", "soluble on expression in E. coli": "not soluble"}
{"sequence": "MAHHHHHHMAEHLLEQLRDVMVLQPSDGAVGNGEMDTSAANSHKYSVVSTFTNSPFVAVLEDTENNEDDEKELIRLLDELSHRIHCSDAADDVERPSGSFAVEKVEAPTLRASHMAPPIYGSPAPAGGSPFNYASCVSQTTKPPPSFAEAVATTPPLSEVPVELSPLAAHYVPPMPAVQQDPILLRNTHGVFMLRPITKPTPPYTPPSLTSSISQPPRYALPPAALPQSQPHFLGSSLAQVGGLADAQIPKKSSFSPYEIPHSMNNVIGGSQILGTGGAGNYTYISTSVKSKSTSHMQPPPPYPS", "soluble on expression in E. coli": "not soluble"}
{"sequence": "MNADTADEEITKLLEFLIEQTKDAFEPMRALAVFESFGQLEEDPLDRKTYHYRFHQKIAPNMDSWNNYSIESRIRLMFALAGRVRDNFLESIQSQGTVELDEKNRICEYISNDGTLTLKGDHSDSARWARRITSTTNPTKSAAFAEKFMNFLVEKTKNVVEPVSVGGIYEEFSQIDGFGLSPAAYRTRFHINIVPEINEWNSYSIEERIRLLMALGALVPEDFLERIEAEGTVDLDEKGRILKYSSNDGNLNLDKRNIATANRRNSTAAHRKRSLDRDSESGSAKNARAVKSEPKSKPQSDLHYSSESDTDDVEFVESLPGKPKLEPIDYDYDQYFNRDVSYNNYDQEEVENRNVRLSIASSMPSLESNVIKLNDFLKEVRKFLCFLEISELDELKHQIKESVVQTAGANENLEISDLCTLLDAFFFSINQKTRSTIPNDSTMPVNVFLIKFKCFLLGMESPEFLDLQEKVQRKLDESDITEKILQLSDIQHAVQYLFFSVSH", "soluble on expression in E. coli": "not soluble"}
{"sequence": "GIEIVNRKAVWYLTSEIKETETGIEVSAGELHKGDEEVFPVEEVSFDLTPDDTYPVEYMLYLHMNVQTKKVSWSLCKAYLDGEGYCDYQGNERLIMYPVSVTVFPNGTREGTIFLYEKEDREPDRKPPVIVEPQPVGEIGTPDIDE", "soluble on expression in E. coli": "soluble"}
{"sequence": "MAHHHHHHMKGVKFRDNFVKLKEEGPRNATTTNFYGSYFLSENEHLFDINEFEKNLEMKMHKNEENLLILEVKNLNVSIANALRRIMLAEVPTIAIEKVNIFQNTGIIADEILCHRLGLIPFKFDADLINFKEEYEKYNHLNCFCFKLHVKFTKKAGSSETCQSIYSRDLKWCPINEHQKARFQKNPPRVVDDNILITKLSNGQEIELICFLEKGIGKTHAKWSPVCTAVYKMYPAFSFNTCEKFTQEEKKDLVNICPKNVFDVEDSDTLVAKNPLNCSSCRVCIEKYPKKISFEKVKNHFIFTIESTGCFSSADIFRKALLILKDKVVSVKEVLEDQTKA", "soluble on expression in E. coli": "not soluble"}
{"sequence": "MGSDKIHHHHHHMKKLDLDVLAMVVAVAESGSFAQGAQAVHRSPSAVSMQIKALEDALGKPLFIRDTRNVTATDDGRMLAEYGRRMLAMRDEAWASVVRPEIRGRVTIGVPDDYISSLLPQVLGKFAAMHPRVEVRVIGQPSSALVPMLKDNTVDLACLTRIKGVTGELIRMEPLVWVGSPKRNVWEERPLPVAFFTHGGSMARDHAVKALNRRKIPYRMSYESPSHLGLLSMVEAGLAVAPLARCCIPDHLVQLSESHGLPSLGELEVVLARSAKSARPPCDYLAEQILDEWRT", "soluble on expression in E. coli": "not soluble"}
{"sequence": "MDIGLEVENIPSVNITSLKEAPIHISSKIQPHGILLVLAEPDLKILQVTNNTLNVFGRSAEDMVQKRLVDLLDAYQLDRIKSGLSEQNLEFINPTKILVRNKGIA", "soluble on expression in E. coli": "not soluble"}
{"sequence": "MGHHHHHHSHMTNTNEAKPVNVLSAEVMITTAFQDADPMGVVYHGNYFRFFEKARHEMLEKIGYSYRDMMASGYVWPIIDTRVKYVKSIPYDHKIRVEATLTEWENRMRVDYVIYDAETNVRMTKAHTMQVAVSIETEEMCFVSPRIFTDKVEAYHNA", "soluble on expression in E. coli": "soluble"}
{"sequence": "MKRTVTVKLQPSKAQEETLKELAIISSKAWNKVNYLRRQEFFEGKPVDFLKTEKIVYEEFKSEIGSATVQQICRKNADAWRSFFSLIRSKRNGELPKWFKPKPPEYVKEGGLIILRNDQYKIEGNKLILKGLGKFKRLEVQFKGRIHLKGKQGRLEITFDPIRRKWYAHISYTVKEKLYGGEWVEVLRQPLGNLSAGIDLGVNNLMAVYVENGESFLVNGRPLKSIDFYWRKRIAEYQSKLNKSGVKKGRKLSKMHQKAKLQAKHYINTAIRRTVEKLYHLGVSRIVVGYPKGISRNSDKGKKQNYLLSHVWRFNYVIKRLREVAEEYGIQVLIVDEAFTSKLCPVCGKPHKGQGLFEDYLSVPRRGLPLMPTWLELSTFLEHHHHHH", "soluble on expression in E. coli": "soluble"}
{"sequence": "MGSDKIHHHHHHMNTLTDVEWNAFALPANLADGHAYHDMHVAFMEIMKNLERIWSEADKITPPRMALDFKNSFSRLIKSPSLMPHTHYKICPSASNSIDLIAAFLHGKNIRTVLVEPTFDNLALLLQRRGVTVDSVSEDNLTHHLVDGNFDSIPAIKTAEAVFIVSPNNPTGYTLSLQEFKTLVAYCKRTEKLLVVDNSFRFFNRQGYDDYQVLLESGVNFIAFEDTGKTWPTQDLKASLIIYSDTVKVFFESLYNEIYLCVSNFVLHLFSHLFDATSAVGLKSVLWDVVDSNRALLRETLQGSVLRISETSKEGLK", "soluble on expression in E. coli": "not soluble"}
{"sequence": "HHMSAIKPDMKINLRMEGNVNGHHFVIDGDGTGKPFEGKQSMDLEVKEGGPLPFAFDILTTAFHYGNRVFAEYPDHIQDYFKQSFPKGYSWERSLTFEDGGICIARNDITMEGDTFYNKVRFHGVNFPANGPVMQKKTLKWEPSTEKMYVRDGVLTGDITMALLLEGNAHYRCDSRTTYKAKEKGVKLPGYHLVDHCIEILSHDKDYNKVKLYEHAVAHSGLPDNARR", "soluble on expression in E. coli": "soluble"}
{"sequence": "MSLKTLLPTSTAGSLPKPSWLAQPEKLWSPWKLQDEELIEGKRDALRLSLNDQQQAGIDIVSDGEQTRQHFVTTFIEHLSGVDFEKRETVRIRNRYDASVPTVVGAVSREKPVFVEDAKFLRQQTRQPIKWALPGPMTMIDTLYDSHYKSREKLAWEFAKILNQEARELEAAGVDIIQFDEPAFNVFFDEVNDWGVATLEKAIEGLKCETAVHICYGYGIKANTDWKKTLGSEWRQYEEAFPKLQKSNIDLISLECHNSRVPMDLIELIRGKKVMVGAIDVATSAIETPEEVADTLRKALRFVDADKLYPCTNCGMAPLSRQVARSKLNALGAGAEIIRRELSVEGHHHHHH", "soluble on expression in E. coli": "soluble"}
{"sequence": "SKVMTLKDAIAKYVHSGDHIALGGFTTDRKPYAAVFEILRQGITDLTGLGGAAGGDWDMLIGNGRVKAYINCYTANSGVTNVSRRFRKWFEAGKLTMEDYSQDVIYMMWHAAALGLPFLPVTLMQGSGLTDEWGISKEVRKTLDKVPDDKFKYIDNPFKPGEKVVAVPVPQVDVAIIHAQQASPDGTVRIWGGKFQDVDIAEAAKYTIVTCEEIISDEEIRRDPTKNDIPGMCVDAVVLAPYGAHPSQCYGLYDYDNPFLKVYDKVSKTQEDFDAFCKEWVFDLKDHDEYLNKLGATRLINLKVVPGLGYHIDMTKE", "soluble on expression in E. coli": "soluble"}
{"sequence": "MGSDKIHHHHHHMLTTDNQLIRLSQGQLNLLETCPRKFQHTHLEQLNSPLDPDHTDKLTLGSRFHLLMQQQEMGLPIDSFLQADTQLQNWMSGFANAAPEILTPATDRQTFRESEHYRTLQFQDYLLTVIYDLLIADHQQAQIFDWKTYPKPPDKRKLAQNWQTRLYMYVLAETSQYSPENISMTYWFVQSQGKPQNIQFTYSHNLHTQTAKKLHQLLDQLTKWLNNYQQGTLFPQVPVNSKACDYCQFAKKCDRLLPTVGHKLNSSESNSLEITAQAINKSFPALDAIEEVSI", "soluble on expression in E. coli": "not soluble"}
{"sequence": "MRQGGIYQTKDANKGPVTVPPLRTKTPPPPPPPVRRHEIYEQHKRYTSAPNLQSAVIRIQDDKPRSIMKRNDLVRREQMLYPTVDTQVVKSVVKKPTVTETVQRFEETRRTEEVERRVQRREKKERRSRHHSSSRHHSGWEGHTGGYQEYRQGAITSSLPRRQIIREADRAMTEEEMNKVVREAYAAADEARKDSRHRSSSLSRGGHGGGGQETYYRQETTRRQQHNNYDDNFNRGIAHARYGSLSDSLRRGELQYVPNGEVRQSFYRDGSNGGQRMHKSYSTRDVFTGDGYDDRRSVSSFRRGSQQQVSPFVEFPPTLPRRGGGGDYRREEDAYFRPVSKSRSYADWDDAGRAGMGREVRRYDDDMSRLEAEFRDSLLMPMPAGNMNERDHRTEQLPGGYETFNKERHANSGRRSGRDGKPVDFNEATQEYNYKREQTLNDDRRRR", "soluble on expression in E. coli": "not soluble"}
{"sequence": "GSHMDPLMQKIDISENPDKIYFIRREDGTVHRGQVLQSRTTENAAAPDEYYVHYVGLNRRLDGWVGRHRISDNADDLGGITVLPAPPLAPDQ", "soluble on expression in E. coli": "soluble"}
{"sequence": "MGVISAYAVVHERAAIIDPGTAKGAEIILDEIDRSWNVEYICPTHIHIDHGGGAARLAKALDAKIIVHPRGVKHVVNPEKLWEASKAVLGEVAEIYGKPESIDESKVIAVEDEQEFDLGGERLKVFHAPGHAPHMLVYYLTNSKVLFPADAVGMCFGGVVFPLTPPPFDADAALKTLKRLKGLKVDYVAFTHYGVVEGDWPIAKLEHHHHHH", "soluble on expression in E. coli": "not soluble"}
{"sequence": "ASASTPHALLLISIDGLRADMLDRGITPNLSHLAREGVRARWMAPSYPSLTFPNHYTLVTGLRPDHHGIVHNSMRDPTLGGFWLSKSEAVGDARWWGGEPVWVGVENTGQHAATWSWPGSEAAIKGVRPSQWRHYQKGVRLDTRVDAVRGWLATDGAQRNRLVTLYFEHVDEAGHDHGPESRQYADAVRAVDAAIGRLLAGMQRDGTRARTNIIVVSDHGMAEVAPGHAISVEDIAPPQIATAITDGQVIGFEPLPGQQAAAEASVLGAHDHYDCWRKAELPARWQYGSHPRIPSLVCQMHEGWDALFPDKLAKRAQRGTRGSHGYDPALPSMRAVFLAQGPDLAQGKTLPGFDNVDVYALMSRLLGIPAAPNDGNPATLLPALRMPPAPDAR", "soluble on expression in E. coli": "soluble"}
